The target of the experiment is Human AP endonuclease 1 (human, UniProt P27695 1-318). The experiment can be described thus: pull-down.
Sequence of Human AP endonuclease 1 (P27695 whole entry): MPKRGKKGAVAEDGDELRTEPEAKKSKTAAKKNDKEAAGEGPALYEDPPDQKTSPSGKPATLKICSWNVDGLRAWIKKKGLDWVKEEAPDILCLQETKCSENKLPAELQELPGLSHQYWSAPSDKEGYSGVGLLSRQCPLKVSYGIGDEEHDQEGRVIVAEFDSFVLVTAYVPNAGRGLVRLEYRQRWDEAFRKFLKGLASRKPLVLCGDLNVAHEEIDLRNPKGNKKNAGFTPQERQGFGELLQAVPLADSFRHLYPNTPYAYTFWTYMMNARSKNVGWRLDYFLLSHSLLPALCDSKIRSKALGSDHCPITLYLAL

B1: his-Hus1 (individual subunit) (natural protein, human, UniProt O60921 1-280, looked up)
chain: MKFRAKIVDGACLNHFTRISNMIAKLAKTCTLRISPDKLNFILCDKLANGGVSMWCELEQENFFNEFQMEGVSAENNEIYLELTSENLSRALKTAQNARALKIKLTNKHFPCLTVSVELLSMSSSSRIVTHDIPIKVIPRKLWKDLQEPVVPDPDVSIYLPVLKTMKSVVEKMKNISNHLVIEANLDGELNLKIETELVCVTTHFKDLGNPPLASESTHEDRNVEHMAEVHIDIRKLLQFLAGQQVNPTKALCNIVNNKMVHFDLLHEDVSLQYFIPALS
As to B1, the binding result is listed as “binds”.

B2: his-Rad1 (individual subunit) (natural protein, human, UniProt O60671 1-282, looked up)
chain: MPLLTQQIQDEDDQYSLVASLDNVRNLSTILKAIHFREHATCFATKNGIKVTVENAKCVQANAFIQAGIFQEFKVQEESVTFRINLTVLLDCLSIFGSSPMPGTLTALRMCYQGYGYPLMLFLEEGGVVTVCKINTQEPEETLDFDFCSTNVINKIILQSEGLREAFSELDMTSEVLQITMSPDKPYFRLSTFGNAGSSHLDYPKDSDLMEAFHCNQTQVNRYKISLLKPSTKALVLSCKVSIRTDNRGFLSLQYMIRNEDGQICFVEYYCCPDEEVPESES
As to B2, the binding result is on record as “binds”.

Source of the values: article PMC1885638 (Nucleic Acids Research, 2007).
